According to the supplement of paper PMC10567573:

B1: ZNF449 (parent)
chain: CTHCSKSFRQRAGLIMHQVTHFRG
B2: TRIM63 (parent)
chain: QRITQEQEKKLSFIEALIQQYQEQ

Variants of: B1
Assay: protein stability index of a GFP-peptide fusion (GPS, HEK-293T) (PSI 1-6); higher = more stable
Settings: c terminus: a fixed tail appended
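Note: lentivirally expressed fusions sorted by FACS into six bins by GFP to DsRed ratio, PSI derived from sequencing read proportions per bin multiplied by bin number.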

| Variant | protein stability index |
| --- | --- |
| CTHCSKAFRQRAGLIMHQVTHFRG [S7A] | 2.14 |
| CTHCSKCFRQRAGLIMHQVTHFRG [S7C] | 2.98 |
| CTHCSRSFRQRAGLIMHQVTHFRG [K6R] | 1.91 |
| CTHCSCSFRQRAGLIMHQVTHFRG [K6C] | 1.52 |
| CTHCSDSFRQRAGLIMHQVTHFRG [K6D] | 1.62 |
| CTHCSESFRQRAGLIMHQVTHFRG [K6E] | 1.58 |
| CTHCSTSFRQRAGLIMHQVTHFRG [K6T] | 2.84 |
| CTHCSYSFRQRAGLIMHQVTHFRG [K6Y] | 2.62 |
| CTHCSMSFRQRAGLIMHQVTHFRG [K6M] | 1.88 |
| CTHCSASFRQRAGLIMHQVTHFRG [K6A] | 4.92 |
| CTHCSQSFRQRAGLIMHQVTHFRG [K6Q] | 3.32 |
| CTHCSLSFRQRAGLIMHQVTHFRG [K6L] | 2.3 |
| CTHCSISFRQRAGLIMHQVTHFRG [K6I] | 2.47 |
| CTHCCKSFRQRAGLIMHQVTHFRG [S5C] | 2.1 |
| CTHCYKSFRQRAGLIMHQVTHFRG [S5Y] | 2.75 |
| CTHCDKSFRQRAGLIMHQVTHFRG [S5D] | 1.73 |
| CTHCNKSFRQRAGLIMHQVTHFRG [S5N] | 1.88 |
| CTHCWKSFRQRAGLIMHQVTHFRG [S5W] | 2.06 |
| CTHCKKSFRQRAGLIMHQVTHFRG [S5K] | 2.52 |
| CTHCHKSFRQRAGLIMHQVTHFRG [S5H] | 2.03 |
| CTHCAKSFRQRAGLIMHQVTHFRG [S5A] | 1.98 |
| CTHCRKSFRQRAGLIMHQVTHFRG [S5R] | 1.7 |
| CTHCFKSFRQRAGLIMHQVTHFRG [S5F] | 1.7 |
| CTHCGKSFRQRAGLIMHQVTHFRG [S5G] | 2.06 |

| Variant | protein stability index |
| --- | --- |
| CTHCPKSFRQRAGLIMHQVTHFRG [S5P] | 2.28 |
| CTHCLKSFRQRAGLIMHQVTHFRG [S5L] | 1.49 |
| CTHCMKSFRQRAGLIMHQVTHFRG [S5M] | 1.56 |
| CTHCTKSFRQRAGLIMHQVTHFRG [S5T] | 1.49 |
| CTHCEKSFRQRAGLIMHQVTHFRG [S5E] | 1.67 |
| DTHCSKSFRQRAGLIMHQVTHFRG [C1D] | 2.01 |
| TTHCSKSFRQRAGLIMHQVTHFRG [C1T] | 1.5 |
| WTHCSKSFRQRAGLIMHQVTHFRG [C1W] | 3.78 |
| VTHCSKSFRQRAGLIMHQVTHFRG [C1V] | 1.64 |
| LTHCSKSFRQRAGLIMHQVTHFRG [C1L] | 2.48 |
| MTHCSKSFRQRAGLIMHQVTHFRG [C1M] | 1.53 |
| NTHCSKSFRQRAGLIMHQVTHFRG [C1N] | 1.72 |
| ATHCSKSFRQRAGLIMHQVTHFRG [C1A] | 2.17 |
| RTHCSKSFRQRAGLIMHQVTHFRG [C1R] | 1.93 |
| ITHCSKSFRQRAGLIMHQVTHFRG [C1I] | 1.74 |
| KTHCSKSFRQRAGLIMHQVTHFRG [C1K] | 2.66 |
| STHCSKSFRQRAGLIMHQVTHFRG [C1S] | 1.91 |
| QTHCSKSFRQRAGLIMHQVTHFRG [C1Q] | 3.23 |
| HTHCSKSFRQRAGLIMHQVTHFRG [C1H] | 1.96 |
| YTHCSKSFRQRAGLIMHQVTHFRG [C1Y] | 1.2 |
| FTHCSKSFRQRAGLIMHQVTHFRG [C1F] | 1.22 |
| ETHCSKSFRQRAGLIMHQVTHFRG [C1E] | 1.77 |
| CMHCSKSFRQRAGLIMHQVTHFRG [T2M] | 1.71 |
| CQHCSKSFRQRAGLIMHQVTHFRG [T2Q] | 2.84 |

| Variant | protein stability index |
| --- | --- |
| CFHCSKSFRQRAGLIMHQVTHFRG [T2F] | 1.45 |
| CGHCSKSFRQRAGLIMHQVTHFRG [T2G] | 1.5 |
| CVHCSKSFRQRAGLIMHQVTHFRG [T2V] | 1.98 |
| CHHCSKSFRQRAGLIMHQVTHFRG [T2H] | 1.92 |
| CIHCSKSFRQRAGLIMHQVTHFRG [T2I] | 2.7 |
| CPHCSKSFRQRAGLIMHQVTHFRG [T2P] | 1.82 |
| CEHCSKSFRQRAGLIMHQVTHFRG [T2E] | 2.4 |
| CNHCSKSFRQRAGLIMHQVTHFRG [T2N] | 2.29 |
| CLHCSKSFRQRAGLIMHQVTHFRG [T2L] | 1.97 |
| CCHCSKSFRQRAGLIMHQVTHFRG [T2C] | 2.09 |
| CRHCSKSFRQRAGLIMHQVTHFRG [T2R] | 2.18 |
| CKHCSKSFRQRAGLIMHQVTHFRG [T2K] | 2.25 |
| CSHCSKSFRQRAGLIMHQVTHFRG [T2S] | 1.98 |
| CDHCSKSFRQRAGLIMHQVTHFRG [T2D] | 1.86 |
| CTDCSKSFRQRAGLIMHQVTHFRG [H3D] | 3.44 |
| CTWCSKSFRQRAGLIMHQVTHFRG [H3W] | 1.38 |
| CTPCSKSFRQRAGLIMHQVTHFRG [H3P] | 1.04 |
| CTECSKSFRQRAGLIMHQVTHFRG [H3E] | 2.11 |
| CTMCSKSFRQRAGLIMHQVTHFRG [H3M] | 2.42 |
| CTQCSKSFRQRAGLIMHQVTHFRG [H3Q] | 1.45 |
| CTLCSKSFRQRAGLIMHQVTHFRG [H3L] | 2.08 |
| CTTCSKSFRQRAGLIMHQVTHFRG [H3T] | 2.09 |
| CTNCSKSFRQRAGLIMHQVTHFRG [H3N] | 2.18 |
| CTFCSKSFRQRAGLIMHQVTHFRG [H3F] | 2.09 |

| Variant | protein stability index |
| --- | --- |
| CTRCSKSFRQRAGLIMHQVTHFRG [H3R] | 1.77 |
| CTYCSKSFRQRAGLIMHQVTHFRG [H3Y] | 2.28 |
| CTKCSKSFRQRAGLIMHQVTHFRG [H3K] | 2.22 |
| CTSCSKSFRQRAGLIMHQVTHFRG [H3S] | 1.66 |
| CTHVSKSFRQRAGLIMHQVTHFRG [C4V] | 1.58 |
| CTHTSKSFRQRAGLIMHQVTHFRG [C4T] | 2.18 |
| CTHHSKSFRQRAGLIMHQVTHFRG [C4H] | 2.39 |
| CTHESKSFRQRAGLIMHQVTHFRG [C4E] | 1.77 |
| CTHGSKSFRQRAGLIMHQVTHFRG [C4G] | 1.8 |
| CTHLSKSFRQRAGLIMHQVTHFRG [C4L] | 2.13 |
| CTHRSKSFRQRAGLIMHQVTHFRG [C4R] | 2.11 |
| CTHDSKSFRQRAGLIMHQVTHFRG [C4D] | 1.66 |
| CTHPSKSFRQRAGLIMHQVTHFRG [C4P] | 1.6 |
| CTHKSKSFRQRAGLIMHQVTHFRG [C4K] | 1.63 |
| CTHSSKSFRQRAGLIMHQVTHFRG [C4S] | 1.33 |
| CTHWSKSFRQRAGLIMHQVTHFRG [C4W] | 3.01 |
| CTHNSKSFRQRAGLIMHQVTHFRG [C4N] | 2.17 |
| CTHQSKSFRQRAGLIMHQVTHFRG [C4Q] | 1.98 |
| CTHISKSFRQRAGLIMHQVTHFRG [C4I] | 2.58 |
| CTHASKSFRQRAGLIMHQVTHFRG [C4A] | 2.6 |
| CTHMSKSFRQRAGLIMHQVTHFRG [C4M] | 1.68 |

Variants of: B2
Assay: as above
Settings: c terminus: a fixed tail appended

| Variant | protein stability index |
| --- | --- |
| QRITQEQEKKLSFIEALITQYQEQ [Q19T] | 2.75 |
